Results from PMC6220203 (2018).

Target: Biotinylated aMD5 (C-terminal biotinylated macrocycle) (macrocyclized; biotin (NHS-biotin) on the added C-terminal Lys)
Test: SPR

B1: MET receptor extracellular domain SEMA–IPT4 (residues 1–931)-Fc (Fc fusion)
chain: ECKEALAKSEMNVNMKYQLPNFTAETPIQNVILHEHHIFLGATNYIYVLNEEDLQKVAEYKTGPVLEHPDCFPCQDCSSKANLSGGVWKDNINMALVVDTYYDDQLISCGSVNRGTCQRHVFPHNHTADIQSEVHCIFSPQIEEPSQCPDCVVSALGAKVLSSVKDRFINFFVGNTINSSYFPDHPLHSISVRRLKETKDGFMFLTDQSYIDVLPEFRDSYPIKYVHAFESNNFIYFLTVQRETLDAQTFHTRIIRFCSINSGLHSYMEMPLECILTEKRKKRSTKKEVFNILQAAYVSKPGAQLARQIGASLNDDILFGVFAQSKPDSAEPMDRSAMCAFPIKYVNDFFNKIVNKNNVRCLQHFYGPNHEHCFNRTLLRNSSGCEARRDEYRTEFTTALQRVDLFMGQFSEVLLTSISTFIKGDLTIANLGTSEGRFMQVVVSRSGPSTPHVNFLLDSHPVSPEVIVEHTLNQNGYTLVITGKKITKIPLNGLGCRHFQSCSQCLSAPPFVQCGWCHDKCVRSEECLSGTWTQQICLPAIYKVFPNSAPLEGGTRLTICGWDFGFRRNNKFDLKKTRVLLGNESCTLTLSESTMNTLKCTVGPAMNKHFNMSIIISNGHGTTQYSTFSYVDPVITSISPKYGPMAGGTLLTLTGNYLNSGNSRHISIGGKTCTLKSVSNSILECYTPAQTISTEFAVKLKIDLANRETSIFSYREDPIVYEIHPTKSFISGGSTITGVGKNLNSVSVPRMVINVHEAGRNFTVACQHRSNSEIICCTTPSLQQLNLQLPLKTKAFFMLDGILSKYFDLIYVHNPVFKPFEKPVMISMGNENVLEIKGNDIDPEAVKGEVLKVGNKSCENIHLHSEAVLCTVPNDLLKLNSELNIEWKQAISSTVLGKVIVQPDQNF
koff: 0.00041 s⁻¹
